Experimental data published in the Human Domainome abundance scans (Beltran et al. 2025).
± gives the uncertainty stated by the source.

B1: Dystrobrevin alpha, residues 235 to 294; numbered along this chain, Q9Y4J8 (parent)
chain: ENVFHPVECSYCHSESMMGFRYRCQQCHNYQLCQDCFWRGHAGGSHSNQHQMKEYTSWKS

Variants of: B1
Experiment: abundance fitness (aPCA) (normalised: wild type 0, dead -1); higher = more abundant; growth selection in yeast, the domain comes from the species named
Conditions: Homo sapiens

Row | Variant | abundance fitness
1 | ENVFHPVECSYCHSESMMGFRYRCQQCHNTQLCQDCFWRGHAGGSHSNQHQMKEYTSWKS [Y30T] | -0.426 ± 0.094
2 | ENVFHPVECSYCHSESMMGFRYRCQQCHNMQLCQDCFWRGHAGGSHSNQHQMKEYTSWKS [Y30M] | -0.288 ± 0.09
3 | ENVFHPVECSYCHSESMMGFRYRCQQCHNGQLCQDCFWRGHAGGSHSNQHQMKEYTSWKS [Y30G] | -0.553 ± 0.043
4 | ENVFHPVECSYCHSESMMGFRYRCQQCHNRQLCQDCFWRGHAGGSHSNQHQMKEYTSWKS [Y30R] | -0.301 ± 0.052
5 | ENVFHPVECSYCHSESMMGFRYRCQQCHNLQLCQDCFWRGHAGGSHSNQHQMKEYTSWKS [Y30L] | -0.36 ± 0.059
6 | ENVFHPVECSYCHSESMMGFRYRCQQCHNSQLCQDCFWRGHAGGSHSNQHQMKEYTSWKS [Y30S] | -0.478 ± 0.069
7 | ENVFHPVECSYCHSESMMGFRYRCQQCHNPQLCQDCFWRGHAGGSHSNQHQMKEYTSWKS [Y30P] | -0.638 ± 0.079
8 | ENVFHPVECSYCHSESMMGFRYRCQQCHNHQLCQDCFWRGHAGGSHSNQHQMKEYTSWKS [Y30H] | -0.53 ± 0.11
9 | ENVFHPVECSYCHSESMMGFRYRCQQCHNKQLCQDCFWRGHAGGSHSNQHQMKEYTSWKS [Y30K] | -0.519 ± 0.095
10 | ENVFHPVECSYCHSESMMGFRYRCQQCHNWQLCQDCFWRGHAGGSHSNQHQMKEYTSWKS [Y30W] | -0.458 ± 0.072
11 | ENVFHPVECSYCHSESMMGFRYRCQQCHNYQDCQDCFWRGHAGGSHSNQHQMKEYTSWKS [L32D] | -0.356 ± 0.32
12 | ENVFHPVECSYCHSESMMGFRYRCQQCHNYQMCQDCFWRGHAGGSHSNQHQMKEYTSWKS [L32M] | -0.793 ± 0.19
13 | ENVFHPVECSYCHSESMMGFRYRCQQCHNYQRCQDCFWRGHAGGSHSNQHQMKEYTSWKS [L32R] | -0.647 ± 0.12
14 | ENVFHPVECSYCHSESMMGFRYRCQQCHNYQVCQDCFWRGHAGGSHSNQHQMKEYTSWKS [L32V] | -0.102 ± 0.12
15 | ENVFHPVECSYCHSESMMGFRYRCQQCHNYQCCQDCFWRGHAGGSHSNQHQMKEYTSWKS [L32C] | 0.038 ± 0.28
16 | ENVFHPVECSYCHSESMMGFRYRCQQCHNYQSCQDCFWRGHAGGSHSNQHQMKEYTSWKS [L32S] | -0.308 ± 0.14
17 | ENVFHPVECSYCHSESMMGFRYRCQQCHNYQKCQDCFWRGHAGGSHSNQHQMKEYTSWKS [L32K] | -0.538 ± 0.18
18 | ENVFHPVECSYCHSESMMGFRYRCQQCHNYQYCQDCFWRGHAGGSHSNQHQMKEYTSWKS [L32Y] | -0.38 ± 0.14
19 | ENVFHPVECSYCHSESMMGFRYRCQQCHNYQECQDCFWRGHAGGSHSNQHQMKEYTSWKS [L32E] | -0.395 ± 0.33
20 | ENVFHPVECSYCHSESMMGFRYRCQQCHNYQACQDCFWRGHAGGSHSNQHQMKEYTSWKS [L32A] | -0.656 ± 0.15
21 | ENVFHPVECSYCHSESMMGFRYRCQQCHNYQWCQDCFWRGHAGGSHSNQHQMKEYTSWKS [L32W] | -0.751 ± 0.26
22 | ENVFHPVECSYCHSESMMGFRYRCQQCHNYQTCQDCFWRGHAGGSHSNQHQMKEYTSWKS [L32T] | 0.053 ± 0.21
23 | ENVFHPVECSYCHSESMMGFRYRCQQCHNYQQCQDCFWRGHAGGSHSNQHQMKEYTSWKS [L32Q] | -0.455 ± 0.13

Row | Variant | abundance fitness
24 | ENVFHPVECSYCHSESMMGFRYRCQQCHNYQGCQDCFWRGHAGGSHSNQHQMKEYTSWKS [L32G] | -0.511 ± 0.14
25 | ENVFHPVECSYCHSESMMGFRYRCQQCHAYQLCQDCFWRGHAGGSHSNQHQMKEYTSWKS [N29A] | -0.028 ± 0.07
26 | ENVFHPVECSYCHSESMMGFRYRCQQCHRYQLCQDCFWRGHAGGSHSNQHQMKEYTSWKS [N29R] | -0.171 ± 0.048
27 | ENVFHPVECSYCHSESMMGFRYRCQQCHSYQLCQDCFWRGHAGGSHSNQHQMKEYTSWKS [N29S] | -0.063 ± 0.051
28 | ENVFHPVECSYCHSESMMGFRYRCQQCHGYQLCQDCFWRGHAGGSHSNQHQMKEYTSWKS [N29G] | -0.058 ± 0.047
29 | ENVFHPVECSYCHSESMMGFRYRCQQCHVYQLCQDCFWRGHAGGSHSNQHQMKEYTSWKS [N29V] | -0.281 ± 0.059
30 | ENVFHPVECSYCHSESMMGFRYRCQQCHKYQLCQDCFWRGHAGGSHSNQHQMKEYTSWKS [N29K] | -0.156 ± 0.08
31 | ENVFHPVECSYCHSESMMGFRYRCQQCHMYQLCQDCFWRGHAGGSHSNQHQMKEYTSWKS [N29M] | -0.044 ± 0.085
32 | ENVFHPVECSYCHSESMMGFRYRCQQCHPYQLCQDCFWRGHAGGSHSNQHQMKEYTSWKS [N29P] | -0.388 ± 0.063
33 | ENVFHPVECSYCHSESMMGFRYRCQQCHTYQLCQDCFWRGHAGGSHSNQHQMKEYTSWKS [N29T] | -0.213 ± 0.065
34 | ENVFHPVECSYCHSESMMGFRYRCQQCHLYQLCQDCFWRGHAGGSHSNQHQMKEYTSWKS [N29L] | -0.125 ± 0.047
35 | ENVFHPVECSYCHSESMMGFRYRCQQCHYYQLCQDCFWRGHAGGSHSNQHQMKEYTSWKS [N29Y] | -0.204 ± 0.084
36 | ENVFHPVECSYCHSESMMGFRYRCQQCHHYQLCQDCFWRGHAGGSHSNQHQMKEYTSWKS [N29H] | -0.075 ± 0.091
37 | ENVFHPVECSYCHSESMMGFRYRCQQCHCYQLCQDCFWRGHAGGSHSNQHQMKEYTSWKS [N29C] | 0.186 ± 0.082
38 | ENVFHPVECSYCHSESMMGFRYRCQQCHEYQLCQDCFWRGHAGGSHSNQHQMKEYTSWKS [N29E] | -0.152 ± 0.09
39 | ENVFHPVECSYCHSESMMGFRYRCQQCHDYQLCQDCFWRGHAGGSHSNQHQMKEYTSWKS [N29D] | 0.052 ± 0.081
40 | ENVFHPVECSYCHSESMMGFRYRCQQCHQYQLCQDCFWRGHAGGSHSNQHQMKEYTSWKS [N29Q] | 0.1 ± 0.074
41 | ENVFHPVECSYCHSESMMGFRYRCQQCHWYQLCQDCFWRGHAGGSHSNQHQMKEYTSWKS [N29W] | -0.183 ± 0.064
42 | ENVFHPVECSYCHSESMMGFRYRCQQCHFYQLCQDCFWRGHAGGSHSNQHQMKEYTSWKS [N29F] | 0.007 ± 0.062
43 | ENVFHPVECSYCHSESMMGFRYRCQQCHNYQLDQDCFWRGHAGGSHSNQHQMKEYTSWKS [C33D] | -0.894 ± 0.12
44 | ENVFHPVECSYCHSESMMGFRYRCQQCHNYQLEQDCFWRGHAGGSHSNQHQMKEYTSWKS [C33E] | -0.541 ± 0.093
45 | ENVFHPVECSYCHSESMMGFRYRCQQCHNYQLAQDCFWRGHAGGSHSNQHQMKEYTSWKS [C33A] | -0.495 ± 0.089
